Data taken from paper PMC3904827, “Segmental Helical Motions and Dynamical Asymmetry Modulate Histidine Kinase Autophosphorylation” (PLoS Biology, 2014).
Positions count from the first letter of the chain named.

What was measured:
[1] = target: the molecule itself; experiment: crystal structure; monomers to homodimer; vapor diffusion at 18°C, protein at ~15 mg/ml, in complex with nucleotides; five crystal forms (C222_(1), P3_(1)21, P6_(1)22, C2, I2)
[2] = target: the molecule itself; experiment: crystal structure; dimers to tetramer (dimer of dimers) as seen in the hexagonal and monoclinic crystal forms; vapor diffusion at 18°C, protein at ~15 mg/ml

B1: full cytoplasmic region of E. coli CpxA (CpxAHDC), wild type (domain or fragment, Escherichia coli, UniProt P0AE82 188-457, looked up)
chain: KPARKLKNAADEVAQGNLRQHPELEAGPQEFLAAGASFNQMVTALERMMTSQQRLLSDISHELRTPLTRLQLGTALLRRRSGESKELERIETEAQRLDSMINDLLVMSRNQQKNALVSETIKANQLWSEVLDNAAFEAEQMGKSLTVNFPPGPWPLYGNPNALESALENIVRNALRYSHTKIEVGFAVDKDGITITVDDDGPGVSPEDREQIFRPFYRTDEARDRESGGTGLGLAIVETAIQQHRGWVKAEDSPLGGLRLVIWLPLYKRS
notes: Sensor histidine kinase CpxA, Escherichia coli, full cytoplasmic region: HAMP domain (residues 188-237) and DHp and CA domains (residues 238-457); The trigonal (4BIV) and hexagonal (4CB0) crystals were grown from seleno-methionyl protein; Crystallised with ADP or ATP; also called CpxA transmitter core; wild-type CpxAHDC; source: SeMet protein from E. coli B834 (DE3)
[1]
  stoichiometry N: 2
[2]
  stoichiometry N: 4

B2: point mutant CpxA_(HDC_M228V) of the full cytoplasmic region of E. coli CpxA (domain or fragment, Escherichia coli, UniProt P0AE82 188-457, looked up)
chain: B1 chain with M41V
notes: Sensor histidine kinase CpxA, Escherichia coli, full cytoplasmic region (HAMP 188-237, DHp and CA 238-457) with the point mutation Met228-Val in the HAMP domain; Probably made like wild-type CpxAHDC (His-tagged, pET28a+, E. coli, IMAC and gel filtration), but the methods describe only the CpxAHDC construct; Crystallised with AMPPNP or ADP; also called CpxAHDC Met228-Val; source: purified protein
[1]
  stoichiometry N: 2
[2]
  stoichiometry N: 4
